From patent publication US20220194999A1 (published 2022)
Blank lines part the entries; values can stand above or below the binder they belong to.

Tests used:
Experiment in all cases: multimer staining
[1] = molecular target: T1, PIK3CA G118D peptide on HLA-A*02:01 (human)
T1 peptide: ILNREIDFA

[2] = molecular target: T2, PIK3CA G118D, mimic peptide PIK3CA_G118D5 peptide on HLA-A*02:01 (human)
T2 peptide: ILNREIDFV

[3] = molecular target: T3, TP53 C141Y, mimic peptide TP53_C141Y8 peptide on HLA-A*02:01 (human)
T3 peptide: KMYPVQLWL

[4] = molecular target: T4, TP53 C141Y peptide on HLA-A*02:01 (human)
T4 peptide: KTYPVQLWV

binding result [1]: recognises | binding result [2]: recognises
B1: TCR of SEQ ID NOs 120 and 114 (TCR)
alpha TRAV12-2*01 TRAJ15*01 CDR3: CAGLIGTALIF
beta TRBV12-3*01 TRBJ1-2*01 CDR3: CASSFSTCSANYGYTF

binding result [3]: recognises | binding result [4]: recognises
B2: TCR of SEQ ID NOs 210 and 114 (TCR)
alpha TRAV8-4*01 TRAJ8*01 CDR3: CAVSDEDTGFQKLVF
beta TRBV12-3*01 TRBJ1-2*01 CDR3: CASSFSTCSANYGYTF
